Assay: Activity of UGT76G1_Sc for the conversion of Rebaudioside D to Rebaudioside M
Assay type: biochemical
Conditions: based on initial concentration of Rebaudioside D; 21 h.
Method: UGT76G1_Sc was prepared according to EXAMPLE 34. Activity tests were performed at 2 mL scale with 200 μL of lysate for the transformation of Rebaudioside D using 0.5 mM of substrate, 2.5 mM of UDP-Glucose and 3 mM MgCl2 in 50 mM Sodium Phosphate buffer at pH 7.2. Samples were taken and analyzed by HPLC according to the method of EXAMPLE 20.

B1: UGT76G1_Sc (protein, UniProt Q6VAB4 1-458, looked up)
UDP-glycosyltransferase 76G1: MENKTETTVRRRRRIILFPVPFQGHINPILQLANVLYSKGFSITIFHTNFNKPKTSNYPHFTFRFILDNDPQDERISNLPTHGPLAGMRIPIINEHGADELRRELELLMLASEEDEEVSCLITDALWYFAQSVADSLNLRRLVLMTSSLFNFHAHVSLPQFDELGYLDPDDKTRLEEQASGFPMLKVKDIKSAYSNWQILKEILGKMIKQTKASSGVIWNSFKELEESELETVIREIPAPSFLIPLPKHLTASSSSLLDHDRTVFQWLDQQPPSSVLYVSFGSTSEVDEKDFLEIARGLVDSKQSFLWVVRPGFVKGSTWVEPLPDGFLGERGRIVKWVPQQEVLAHGAIGAFWTHSGWNSTLESVCEGVPMIFSDFGLDQPLNARYMSDVLKVGVYLENGWERGEIANAIRRVMVDEEGEYIRQNARVLKQKADVSLMKGGSSYESLESLVSYISSL
modifications: expressed in Saccharomyces cerevisiae
In the case of B1, the “Rebaudioside M selectivity (Retention Time ~6.7 min)” value is reported as 100%.
